Test results as given in PMC5016554.

Target: growth hormone secretagogue receptor (GHSR) (mouse (endogenous in pancreatic delta cells)) (UniProt Q99P50)
UniProt Q99P50, sequence (Q99P50 whole entry, stated change not applied): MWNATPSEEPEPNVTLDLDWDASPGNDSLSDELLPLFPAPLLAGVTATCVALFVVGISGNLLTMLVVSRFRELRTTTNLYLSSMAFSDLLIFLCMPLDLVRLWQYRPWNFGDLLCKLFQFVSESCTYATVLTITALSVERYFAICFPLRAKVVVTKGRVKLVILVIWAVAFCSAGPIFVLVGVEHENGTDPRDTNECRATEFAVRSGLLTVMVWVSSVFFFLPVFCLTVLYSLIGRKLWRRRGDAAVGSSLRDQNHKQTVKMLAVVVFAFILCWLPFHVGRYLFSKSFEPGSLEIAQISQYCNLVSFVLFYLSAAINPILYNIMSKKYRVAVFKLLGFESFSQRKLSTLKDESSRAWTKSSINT

SST release from perfused mouse pancreas at 12 mmol/l glucose, 1 and 100 nmol/l ghrelin, fold increase: 2.7 fold
Substance: Mouse ghrelin (peptide)
